Test results as given in article PMC2988878 (Nature structural & molecular biology, 2010).
Where “and” joins values, the source holds several entries; their conditions need not be identical. Identical values can stand only once.

Key:
[1] = target: Pup (Mycobacterium tuberculosis) (UniProt P9WHN5); test: anisotropy; conditions: cited from earlier work
crystal structure = target: the molecule itself; test: crystal structure
[2] = target: T1, Mycobacterium proteasomal ATPase Mpa, residues 1-234 (Mpa1-234) (Mycobacterium tuberculosis, UniProt P9WQN5 1-234); test: crystal structure
T1 sequence: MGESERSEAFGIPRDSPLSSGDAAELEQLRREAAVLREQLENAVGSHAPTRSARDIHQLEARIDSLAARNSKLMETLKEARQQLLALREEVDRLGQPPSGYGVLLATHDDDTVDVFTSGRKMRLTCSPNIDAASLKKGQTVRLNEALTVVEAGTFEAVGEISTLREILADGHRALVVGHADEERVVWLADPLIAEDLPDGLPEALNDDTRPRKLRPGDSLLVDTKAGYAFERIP

Mpa (from UniProt P9WQN5)
Kd [1]: 4.2 µM and 3.4 µM

B1: Mpa coiled-coil domain, residues 46-96 (Mpa46-96) (domain or fragment)
chain: SHAPTRSARDIHQLEARIDSLAARNSKLMETLKEARQQLLALREEVDRLGQ
stoichiometry N (crystal structure): 2

B2: Full-length prokaryotic ubiquitin-like protein, Pup1-64-GGQ with a C-terminal non-cleavable His6-tag (natural protein)
chain: MAQEQTKRGGGGGDDDDIAGSTAAGQERREKLTEETDDLLDEIDDVLEENAEDFVRAYVQKGGQ
binding result [2]: binds
